Results reported in PMC2440032, “Odorranalectin Is a Small Peptide Lectin with Potential for Drug Delivery and Targeting” (PLoS ONE, 2008).

Columns and labels:
[1] = target: Bovine submaxillary mucin (bovine, heavily O-glycosylated (sialylated) mucin preparation; the polypeptide is not given, and the main bovine submaxillary mucin (MUC19) is assumed with limits from the CHAIN feature; the pre); assay: SPR; Biacore 3000; odorranalectin immobilised on sensor chip CM-5 by amine coupling, glycoproteins as analytes diluted in HBS-EP (10 mM HEPES-buffered saline, 3 mM EDTA, 0.005% surfactant P-20, pH 7.4); 1:1 binding model; KD calculated from ka and kd; conditions: both partners purified
fetuin = target: T1, fetuin (UniProt P12763 19-359); assay: as above; conditions: both partners purified
T1 sequence (looked up): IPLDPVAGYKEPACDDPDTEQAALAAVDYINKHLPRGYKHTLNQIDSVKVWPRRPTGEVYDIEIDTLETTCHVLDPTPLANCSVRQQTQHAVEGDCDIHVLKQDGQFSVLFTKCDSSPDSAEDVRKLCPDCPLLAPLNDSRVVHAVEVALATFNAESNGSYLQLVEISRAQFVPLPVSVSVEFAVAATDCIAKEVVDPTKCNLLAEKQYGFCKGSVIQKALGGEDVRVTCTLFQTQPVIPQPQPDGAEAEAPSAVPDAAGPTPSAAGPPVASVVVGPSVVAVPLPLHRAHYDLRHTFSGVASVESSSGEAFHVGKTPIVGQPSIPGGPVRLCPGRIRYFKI

B1: odorranalectin (peptide)
peptide: YASPKCFRYPNGVLACT
notes: odorranalectin, mature 17-residue peptide at the C-terminus of the 61-residue precursor, Odorrana grahami; follows the di-basic site K42R43 of the precursor; One intramolecular disulfide bond Cys6-Cys16; Immobilised on a CM-5 chip by amine coupling; Details of purification and synthesis are in Materials and Methods S1; also called lectin-like peptide; source: purified from O. grahami skin …
Kd [1]: 2.9 µM | Kd (fetuin): 0.211 µM
